Results on three molecules are retold here after patent publication US20140271629A1 (Amgen, published 2014).

Test [1] concerns the target Human BMP4 (R&D Systems cat#314-BP) (human) (UniProt P12644). The test is described as follows: cell-based or functional assay.
The target of test [2] is T1, huCHRDL-1-DEVD-6xHis (human, UniProt Q9BU40 28-456).
T1 construct: also called Human CHRDL-1
T1 sequence: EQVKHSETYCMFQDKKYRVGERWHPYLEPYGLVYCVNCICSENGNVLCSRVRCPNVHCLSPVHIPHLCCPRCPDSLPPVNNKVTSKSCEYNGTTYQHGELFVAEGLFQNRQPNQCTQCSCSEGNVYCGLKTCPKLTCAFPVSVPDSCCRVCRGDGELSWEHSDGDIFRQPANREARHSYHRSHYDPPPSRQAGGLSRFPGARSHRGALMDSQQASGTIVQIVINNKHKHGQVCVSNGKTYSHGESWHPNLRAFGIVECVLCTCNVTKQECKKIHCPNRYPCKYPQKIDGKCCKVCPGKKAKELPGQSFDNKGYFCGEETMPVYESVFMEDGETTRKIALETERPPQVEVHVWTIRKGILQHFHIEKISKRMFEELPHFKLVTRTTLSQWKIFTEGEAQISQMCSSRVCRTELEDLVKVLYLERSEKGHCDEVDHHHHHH
In words: KinExA, solution equilibrium, huCHRDL-1-coated beads. As for the experimental part: Binding of the various anti-CHRDL-1 antibodies to huCHRDL-1-DEVD-6xHis was performed using KinExA technology. The huCHRDL-1 protein was coated onto Reacti-Gel™ 6X (Pierce Biotechnology, Inc., Rockford, Ill.) agarose beads at a concentration of 50 ug protein/mL of beads in 50 mM Na₂CO₃ pH 9.6 for approximately 18 hours at 4° C. The coated beads were then blocked with 1 mg/mL BSA (Sigma-Aldrich, St. Louis, Mo.) in 1 M Tris-HCl, pH 7.5 for 2 hours at 4° C. Antibodies at fixed concentrations were mixed with varying concentrations of huCHRDL-1 in PBS containing 0.1 mg/mL BSA and 0.005% polysorbate 20 (P-20, BIAcore, Inc., Piscataway, N.J.) for at least 12 hours at room temperature. Antibody concentrations were 10 pM, 30 pM, 100 pM and/or 300 pM as appropriate. […] Antibody bound to the beads was quantified using fluorescent DyLight 649-conjugated goat anti-murine IgG (H+L) antibody (Jackson ImmunoResearch, West Grove, Pa.) at 1 ug/mL in Super Block (Pierce Biotechnology, Inc., Rockford, Ill.) for the mouse antibodies, or using AlexaFluor™ 647-conjugated goat anti-human IgG (H+L) at 1 ug/mL for the humanized antibody. […] The dissociation equilibrium constant (KD) can be determined from nonlinear regression analysis of the competition curves using a multiple curve one-site homogeneous binding model provided in the KinExA Pro software (Sapidyne Instruments, Inc., Boise, Id.).
In general terms: A kinetic exclusion assay measures how much of one partner remains free in solution.

Chain of Human BMP4 (R&D Systems cat#314-BP) (human) (P12644 293-408 limits assumed): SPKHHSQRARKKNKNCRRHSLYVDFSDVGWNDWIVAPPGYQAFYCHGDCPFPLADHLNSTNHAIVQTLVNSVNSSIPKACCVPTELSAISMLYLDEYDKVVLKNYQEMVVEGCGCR

With “muCHRDL-1-DEVD-6xHis (from UniProt Q920C1 23-447)”, in test [1], the RLU mean, BRE-luciferase reporter in MC3T3-E1-BRE-Luc cells stimulated with BMP4 (TSG present) came out at 254 RLU and the reduction of RLU mean, BRE-luciferase reporter in MC3T3-E1-BRE-Luc cells stimulated with BMP4 (TSG present) was 55%.

Turning to “Recombinant human CHRDL-1 (R&D Systems cat#1808-NR), Glu22-Cys450 with C-terminal 10xHis tag (from UniProt Q9BU40 28-456)”, in test [1], the RLU mean, BRE-luciferase reporter in MC3T3-E1-BRE-Luc cells stimulated with BMP4 (TSG present) is 62 RLU and the reduction of RLU mean, BRE-luciferase reporter in MC3T3-E1-BRE-Luc cells stimulated with BMP4 (TSG present) worked out at 89%.

B1: huz-LC2G2.2_LC/huz-bmHC2G2.2_eflsIgG1 (antibody, V domains shown)
VH: QVQLVQSGAEVKKPGASVKVSCKASGYTFTSYWMHWVRQAPGQGLERMGNINPSNGGTNYNEKFKSRVTMTVDKSSSTAYMELSSLRSEDTAVYYCARSKNNYVAYYFDYWGQGTLVTVSS
VL: DIQMTQSPSSLSASVGDRVTITCRASENIYYSLAWYQQKPGKAPKLLIYNANSLEDGVPSRFSGSGSGTDFTLTISSLQPEDFATYYCKQAYDVPLTFGQGTKLEIKR
notes: also called huz-2G2.2-A; Huz-2G2.2-A
Regarding B1, the Kd in test [2] was 0.142 nM.

As a reminder, the Kd is a measure of binding affinity in units of concentration.
